Values of other authors, collected in paper PMC3036710.

Experiments:
Assay in all cases: solid-phase binding
[1] = molecular target: CML-bovine serum albumin (Bos taurus) (UniProt P02769)
HMGB-1 (Homo sapiens) = HMGB-1 (Homo sapiens) (UniProt P09429)
[2] = molecular target: S100b calgranulin (Homo sapiens) (UniProt P04271)
UniProt P04271, sequence (P04271 2-92): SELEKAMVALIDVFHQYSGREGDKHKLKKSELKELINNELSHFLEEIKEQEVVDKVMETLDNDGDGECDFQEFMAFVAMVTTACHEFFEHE

UniProt P02769, sequence (P02769 25-607): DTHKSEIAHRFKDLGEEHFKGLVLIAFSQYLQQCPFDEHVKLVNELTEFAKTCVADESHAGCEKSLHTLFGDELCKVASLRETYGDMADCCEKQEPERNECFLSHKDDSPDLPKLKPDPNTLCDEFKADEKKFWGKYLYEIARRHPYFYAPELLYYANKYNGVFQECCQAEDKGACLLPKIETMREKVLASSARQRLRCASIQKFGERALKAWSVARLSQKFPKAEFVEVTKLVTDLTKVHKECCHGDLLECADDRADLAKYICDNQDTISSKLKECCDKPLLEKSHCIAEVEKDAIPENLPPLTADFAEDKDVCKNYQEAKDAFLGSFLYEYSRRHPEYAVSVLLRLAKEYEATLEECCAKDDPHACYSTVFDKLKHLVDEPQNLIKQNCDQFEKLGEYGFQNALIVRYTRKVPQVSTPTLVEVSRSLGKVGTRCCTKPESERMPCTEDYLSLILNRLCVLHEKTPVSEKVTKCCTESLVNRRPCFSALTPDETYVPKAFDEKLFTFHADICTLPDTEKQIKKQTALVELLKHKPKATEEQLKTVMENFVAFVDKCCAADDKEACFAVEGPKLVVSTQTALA
UniProt P09429, sequence (P09429 whole entry): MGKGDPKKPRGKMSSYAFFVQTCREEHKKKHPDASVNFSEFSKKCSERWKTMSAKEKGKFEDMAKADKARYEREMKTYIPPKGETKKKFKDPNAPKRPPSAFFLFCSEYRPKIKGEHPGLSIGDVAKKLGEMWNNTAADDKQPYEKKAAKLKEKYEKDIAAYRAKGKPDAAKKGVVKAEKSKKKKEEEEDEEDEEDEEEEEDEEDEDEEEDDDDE

## RAGE (from UniProt Q15109)
[1]
  Kd: 430 pM
HMGB-1 (Homo sapiens)
  Kd: 640 pM
[2]
  Kd: 450 pM
